Each block holds one binder with its values, some of them ahead of it.
Assays:
Details in all cases: both partners purified
[1] = biological target: T1, RILP(1–401)::Strep-tag II (human, UniProt Q96NA2 1-401); test: pull-down; GST::LIC::6xHis (50 pmol) with 50 or 250 pmol adaptor and glutathione agarose, 1 h at 4°C, 150 μL of 50 mM HEPES, 100 mM NaCl, 5 mM DTT, pH 7.5, 0.1% Tween 20; Coomassie staining and immunoblot against Strep-tag II
T1 construct: also called RILP::Strep-tag II; source: Sf21 insect cells (baculovirus), purified (Strep-Tactin Sepharose); not shown: Strep-tag II (after linker GSGSGR), C-terminal, kept
T1 sequence (looked up): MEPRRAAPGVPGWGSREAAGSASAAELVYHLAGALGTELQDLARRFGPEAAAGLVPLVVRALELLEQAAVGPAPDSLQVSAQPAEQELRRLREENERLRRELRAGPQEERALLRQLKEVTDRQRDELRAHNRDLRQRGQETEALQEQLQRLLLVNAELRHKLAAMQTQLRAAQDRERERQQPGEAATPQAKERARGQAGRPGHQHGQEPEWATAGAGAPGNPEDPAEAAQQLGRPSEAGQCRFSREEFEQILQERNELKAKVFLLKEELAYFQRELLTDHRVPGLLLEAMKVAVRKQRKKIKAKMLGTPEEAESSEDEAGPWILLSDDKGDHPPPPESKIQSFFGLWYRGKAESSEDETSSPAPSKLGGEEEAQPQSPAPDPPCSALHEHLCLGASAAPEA

[2] = biological target: T2, HOOK3(2–552)::Strep-tag II (human, UniProt Q86VS8 2-552); test: as above
T2 construct: human Hook homolog 3 (HOOK3), residues 2-552; used for the GST pull-downs; also called Hook homolog 3; source: E. coli Rosetta, purified (Ni-NTA, TEV cleavage, Strep-Tactin; dialysis or SEC); not shown: 6xHis::MBP, N-terminal, cleaved; Strep-tag II (after linker GSGSGR), C-terminal, kept
T2 sequence (looked up): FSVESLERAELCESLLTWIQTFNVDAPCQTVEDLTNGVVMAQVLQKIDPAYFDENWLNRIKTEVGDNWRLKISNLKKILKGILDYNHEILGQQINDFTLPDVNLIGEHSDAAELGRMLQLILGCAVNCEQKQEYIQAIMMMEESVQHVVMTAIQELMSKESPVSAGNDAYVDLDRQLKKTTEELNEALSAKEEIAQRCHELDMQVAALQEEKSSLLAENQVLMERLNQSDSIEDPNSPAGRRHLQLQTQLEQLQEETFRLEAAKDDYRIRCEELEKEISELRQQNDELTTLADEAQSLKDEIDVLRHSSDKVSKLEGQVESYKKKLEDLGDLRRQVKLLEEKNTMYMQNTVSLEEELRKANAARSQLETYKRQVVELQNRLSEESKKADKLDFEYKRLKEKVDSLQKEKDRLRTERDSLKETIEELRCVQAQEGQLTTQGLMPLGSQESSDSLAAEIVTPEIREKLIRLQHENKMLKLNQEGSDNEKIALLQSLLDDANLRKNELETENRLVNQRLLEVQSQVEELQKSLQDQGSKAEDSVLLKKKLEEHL

NIN(1–693)::Strep-tag II = biological target: T3, NIN(1–693)::Strep-tag II (human, UniProt Q8N4C6 1-693); test: as above
T3 construct: human ninein (NIN), N-terminal fragment, residues 1-693 of 2,090; also called ninein; source: E. coli Rosetta, purified (Ni-NTA, TEV cleavage, Strep-Tactin; dialysis or SEC); not shown: 6xHis::MBP, N-terminal, cleaved; Strep-tag II (after linker GSGSGR), C-terminal, kept
T3 sequence (looked up): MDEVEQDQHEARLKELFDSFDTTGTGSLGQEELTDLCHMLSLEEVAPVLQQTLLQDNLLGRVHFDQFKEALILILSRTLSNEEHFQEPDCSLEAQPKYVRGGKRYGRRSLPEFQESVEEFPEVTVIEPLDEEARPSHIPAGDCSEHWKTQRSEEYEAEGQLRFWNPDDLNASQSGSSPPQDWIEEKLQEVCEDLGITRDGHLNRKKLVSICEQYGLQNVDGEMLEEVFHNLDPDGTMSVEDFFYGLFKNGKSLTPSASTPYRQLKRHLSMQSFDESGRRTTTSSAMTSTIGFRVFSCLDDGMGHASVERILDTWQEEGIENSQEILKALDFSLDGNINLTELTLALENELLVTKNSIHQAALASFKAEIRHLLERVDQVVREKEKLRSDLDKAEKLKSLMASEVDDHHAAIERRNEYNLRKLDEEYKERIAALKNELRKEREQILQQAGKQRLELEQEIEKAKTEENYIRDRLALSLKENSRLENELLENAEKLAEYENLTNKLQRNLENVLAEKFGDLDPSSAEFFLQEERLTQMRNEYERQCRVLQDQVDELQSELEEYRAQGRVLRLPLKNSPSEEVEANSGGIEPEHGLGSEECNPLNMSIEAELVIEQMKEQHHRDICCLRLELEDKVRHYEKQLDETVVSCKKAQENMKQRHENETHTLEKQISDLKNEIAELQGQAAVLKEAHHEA

[3] = biological target: T4, RAB11FIP3(2–756)::Strep-tag II (human, UniProt O75154 2-756); test: as above
T4 construct: source: E. coli BL21, purified (Ni-NTA, TEV cleavage, Strep-Tactin; dialysis or SEC); not shown: 6xHis::MBP, N-terminal, cleaved; Strep-tag II (after linker GSGSGR), C-terminal, kept
T4 sequence (looked up): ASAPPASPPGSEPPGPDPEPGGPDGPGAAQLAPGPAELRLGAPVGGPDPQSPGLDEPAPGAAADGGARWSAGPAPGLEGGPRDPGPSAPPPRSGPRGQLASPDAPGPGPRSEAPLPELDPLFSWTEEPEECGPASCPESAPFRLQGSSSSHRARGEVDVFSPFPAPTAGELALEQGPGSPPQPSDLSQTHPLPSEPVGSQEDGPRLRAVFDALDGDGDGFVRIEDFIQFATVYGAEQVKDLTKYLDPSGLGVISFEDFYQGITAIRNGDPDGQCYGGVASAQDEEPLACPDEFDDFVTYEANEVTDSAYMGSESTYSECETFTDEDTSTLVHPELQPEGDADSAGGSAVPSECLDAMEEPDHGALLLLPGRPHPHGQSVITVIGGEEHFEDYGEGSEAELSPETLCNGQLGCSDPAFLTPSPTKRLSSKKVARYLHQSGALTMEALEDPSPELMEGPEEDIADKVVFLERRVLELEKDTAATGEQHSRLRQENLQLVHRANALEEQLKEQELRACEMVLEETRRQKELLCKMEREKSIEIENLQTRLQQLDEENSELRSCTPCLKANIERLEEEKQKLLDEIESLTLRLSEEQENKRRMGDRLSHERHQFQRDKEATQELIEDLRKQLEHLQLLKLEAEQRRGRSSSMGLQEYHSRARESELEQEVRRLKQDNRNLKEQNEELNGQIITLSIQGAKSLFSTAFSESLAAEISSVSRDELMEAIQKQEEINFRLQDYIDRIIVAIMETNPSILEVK

[4] = biological target: T5, SPDL1(2–359)::Strep-tag II (human, UniProt Q96EA4 2-359); test: SPR; Biacore 3000; His-tagged LIC1 immobilised on NTA chip (200–300 RU), Strep-tagged adaptor as analyte; HBS-P (10 mM HEPES, 150 mM NaCl, 0.005% surfactant P20, pH 7.4)
T5 construct: human Spindly (SPDL1), N-terminal region, residues 2-359; also called Spindly; source: E. coli BL21, purified (Ni-NTA, TEV cleavage, Strep-Tactin; dialysis or SEC); not shown: 6xHis::MBP, N-terminal, cleaved; Strep-tag II (after linker GSGSGR), C-terminal, kept
T5 sequence (looked up): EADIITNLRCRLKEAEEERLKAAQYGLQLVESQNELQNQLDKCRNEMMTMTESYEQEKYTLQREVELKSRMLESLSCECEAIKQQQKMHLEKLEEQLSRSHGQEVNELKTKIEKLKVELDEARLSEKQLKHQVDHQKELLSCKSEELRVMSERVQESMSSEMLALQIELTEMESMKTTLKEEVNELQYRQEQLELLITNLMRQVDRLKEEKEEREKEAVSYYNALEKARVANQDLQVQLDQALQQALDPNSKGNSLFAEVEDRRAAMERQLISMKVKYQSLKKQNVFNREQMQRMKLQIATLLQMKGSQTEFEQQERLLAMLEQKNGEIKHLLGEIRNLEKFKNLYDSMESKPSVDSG

[5] = biological target: T6, BICD2(2–422)::Strep-tag II (human, UniProt Q8TD16 2-422); test: as above
T6 construct: human bicaudal D homolog 2 (BICD2), N-terminal region, residues 2-422; also called bicaudal D homolog 2; source: E. coli BL21, purified (Ni-NTA, TEV cleavage, Strep-Tactin; dialysis or SEC); not shown: 6xHis::MBP, N-terminal, cleaved; Strep-tag II (after linker GSGSGR), C-terminal, kept
T6 sequence (Q8TD16 2-422): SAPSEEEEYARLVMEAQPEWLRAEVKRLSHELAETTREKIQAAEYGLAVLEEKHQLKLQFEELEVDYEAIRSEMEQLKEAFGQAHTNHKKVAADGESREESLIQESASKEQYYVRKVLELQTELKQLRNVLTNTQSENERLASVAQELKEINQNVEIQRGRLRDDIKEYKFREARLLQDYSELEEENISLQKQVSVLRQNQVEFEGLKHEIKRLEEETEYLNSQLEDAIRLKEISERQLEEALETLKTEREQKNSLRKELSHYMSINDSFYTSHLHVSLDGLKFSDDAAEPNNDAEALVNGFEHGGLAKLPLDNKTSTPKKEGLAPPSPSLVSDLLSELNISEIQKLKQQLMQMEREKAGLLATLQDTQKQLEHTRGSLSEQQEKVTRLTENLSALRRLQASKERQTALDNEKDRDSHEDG

[6] = biological target: T1, RILP(1–401)::Strep-tag II; test: SPR; Biacore X100, CM5 chip; GST::LIC1::6xHis captured by immobilised anti-GST antibody, RILP::Strep-tag II as analyte (0.3–50 μM); 25°C; 10 mM HEPES, 150 mM NaCl, 3 mM EDTA, 0.05% surfactant P20, pH 7.4; 1:1 model
[7] = biological target: T6, BICD2(2–422)::Strep-tag II; test: pull-down; GST::LIC::6xHis (50 pmol) with 50 or 250 pmol adaptor and glutathione agarose, 1 h at 4°C, 150 μL of 50 mM HEPES, 100 mM NaCl, 5 mM DTT, pH 7.5, 0.1% Tween 20; Coomassie staining and immunoblot against Strep-tag II

- binding result [1]: binds
- binding result [2]: binds
- binding result (NIN(1–693)::Strep-tag II): binds
- binding result [3]: binds
B1: GST::LIC1(388–471)::6xHis (domain or fragment, human)
chain: WPTAAGRPVDASPRVPGGSPRTPNRSVSSNVASVSPIPAGSKKIDPNMKAGATSEGVLANFFNSLLSKKTGSPGGPGVSGGSPAG
notes: single N-terminal tryptophan added in the construct; source: E. coli BL21, purified (glutathione agarose, Ni-NTA; dialysis or SEC); not shown: GST, N-terminal, kept; 6xHis (after linker GSGSG), C-terminal, kept

- Kd [4]: 5400 nM
B2: LIC1(388–471)::6xHis (domain or fragment, human)
chain: B1 chain
notes: single N-terminal tryptophan added in the construct; source: E. coli BL21, purified (GSTrap, PreScission cleavage, second GSTrap, SEC Superdex 75); not shown: GST, N-terminal, cleaved; 6xHis (after linker GSGSG), C-terminal, kept
- Kd [5]: 700 nM

- Kd [6]: 1180 nM
- koff [6]: 0.00101 s⁻¹
- kon [6]: 872 M⁻¹ s⁻¹
- binding result (NIN(1–693)::Strep-tag II): binds
- binding result [3]: binds
B3: GST::LIC1(388–523)::6xHis (domain or fragment, human)
chain: WPTAAGRPVDASPRVPGGSPRTPNRSVSSNVASVSPIPAGSKKIDPNMKAGATSEGVLANFFNSLLSKKTGSPGGPGVSGGSPAGGAGGGSSGLPPSTKKSGQKPVLDVHAELDRITRKPVTVSPTTPTSPTEGEAS
notes: single N-terminal tryptophan added in the construct; also called LIC1-C; source: E. coli BL21, purified (glutathione agarose, Ni-NTA; dialysis or SEC); not shown: GST, N-terminal, kept; 6xHis (after linker GSGSG), C-terminal, kept

- binding result [1]: binds
- binding result [2]: binds
B4: GST::LIC1(424–471)::6xHis (domain or fragment, human)
chain: WPAGSKKIDPNMKAGATSEGVLANFFNSLLSKKTGSPGGPGVSGGSPAG
notes: single N-terminal tryptophan added in the construct; human dynein light intermediate chain 1 (DYNC1LI1), residues 424-471; source: E. coli BL21, purified (glutathione agarose, Ni-NTA; dialysis or SEC); not shown: GST, N-terminal, kept; 6xHis (after linker GSGSG), C-terminal, kept
- binding result [7]: binds

- binding result [1]: binds
- binding result [2]: binds
B5: GST::LIC1(440–471)::6xHis (domain or fragment, human)
chain: WSEGVLANFFNSLLSKKTGSPGGPGVSGGSPAG
notes: single N-terminal tryptophan added in the construct; human dynein light intermediate chain 1 (DYNC1LI1), residues 440-471; source: E. coli BL21, purified (glutathione agarose, Ni-NTA; dialysis or SEC); not shown: GST, N-terminal, kept; 6xHis (after linker GSGSG), C-terminal, kept
- binding result [7]: binds

Source: article PMC6336354, “A transient helix in the disordered region of dynein light intermediate chain links the motor to structurally diverse adaptors for cargo transport” (PLoS Biology, 2019)
